Sequences and labels used below:
B1: mAb1-2 (antibody, V domains shown)
VH: EVQLVESGGGLVQPGGSLRLSCAASGFIFSNYWMSWVRQAPGKGPEWVANIKQDGSANHYVDSVKGRFTISRDNAKNSLYLQMNSLRAEDTAVYYCAREAYQDWNYDYWGQGTLVTVSS
VL: DIQMTQSPSSLSASVGDRVTVTCRASEFISRYLNWYQQKPGKAPKVLIYAASSLQSGVPSRFSGSGSGTDFTLTISSLQPEDFATYYCQQSYSTPYTFGQGTKLEIK
notes: also called Fab1-2 (so named in the dot blot sentence)
B2: mAb3-3 (antibody, V domains shown)
VH: QVQLQESGPGLVKSSETLSLTCTVSGESISSSSHYWGWIRQPPGKGLEFLGNVYYLGSTYYNPSLESRVTILLDTSKNQFSLKVNSVTVADTAVYYCARHGAGSYSGLFFDYWGQGARVIVSS
VL: DIQMTQSPSFVSASVGDRVNITCRASQGINSWLAWYQQKPGKAPKLLIYSASSLQSGVPSRFSGSGSGTDFTLTISTLQPEDFATYYCQQANSFPYTFGQGTKVD
B3: mAb3-6 (antibody, V domains shown)
VH: EVQLVESGGGLVQPGGSLRLSCSASGFHFSSYEMNWVRQAPGKGLEWVSYISSSGTYIDYADSVKGRFTISRDNPANSLYLQMYSLRAEDTAVYYCARRLWFGELPYSYYYGMDVWGQGTTVTVSS
VL: ALTQPASVSGSPGQSITISCTGTSSDIGGYNYVSWYQQHPGKAPELLIFDVSNRPSGVSNRFSGSKSGNTASLTISGLQAEDEADYHCCSYTRTSTVIFGGGTKLTVL
B4: mAb2-6 (antibody, V domains shown)
VH: VQLLESGGALVQPGGSLRLSCAASGFSFSNYAMSWVRQAPGKGLEWVSTISASGGTTYFADSVKGHFTISRDNSKNTLYLQMDSLRAEDTAVYYCAKDPNYYDLSGYFLGGYYFDYWGQGTLVTVSS
VL: EIVLTQSPGTLSLSPGERATLSCRASQSVRSSYLAWYQQKPGQAPRLLIYGASSRATDIPDRFSGSGSGTDFTLTISRLEPEDFAVYYCQQYGTSPAFGGGTKV
B5: mAb3-1 (antibody, V domains shown)
VH: EVQLLESGGGLVQPGGSLRLSCEASGFTFSRYPMNWVRQAPGKGLEWVSHISASGGTTYYADTVKGRFSISRDNSKNTLYLEMNSLRAEDTAIYFCAKDYPPDEVTMIVVGMPYFDSWGLGTLVSVSS
VL: not shown
B6: mAb2-4 (antibody, V domains shown)
VH: EVQLLESGGGLVHPGGSLRLSCAASGFPFSNFAMSWVRQAPGKGLEWVSTISGSSGSTYYADSVRGRFTISRDYSKNTVYLEMNSLRADDTAIYYCAKDRMITFGEVIVKHYDAFEIWGQGTRVAV
VL: DIQMTQSPSSLSASVGDRVTITCRASQTISTNVNWYQQKPGKAPKLLIYAASSLQSGVPSRFSGSGSGTDFTLTISSLQPEDFATFYCQQSYSAPLTFGEGTKV
B7: mAb1-5 (antibody, V domains shown)
VH: EVQLVESGGGLVKPGGSLRLSCAASGFMFSSYSMNWVRQAPGKGLEWVSSISRSDSYIDYADSVKGRFTISRDTAMNVLYLQMDSLRAEDTGVYYCARTHVFNMFREVINDDYYGMDVWGQGTTVTVS
VL: ALTQPASVSGSPGQSITISCTGTSSDFGIYNSVSWYQHHPGKAPKLMIFGVSNRPSGVSNRFSGSKSGNTASLSISGLQAEDEADYYCSSFTARSTVVFGGGTKLTVL
B8: mAb3-5 (antibody, V domains shown)
VH: EVQLVESGGGLVQPGGSLRLSCAASGFTFSNYGMNWVRQAPGKGLEWVSYISSGGTIYYADSVKGRFTISRDNAKNSVYLQMNSLRAEDTAVYYCARDPAYCGDDCYTIPAHYFDYWGQGTPVTVS
VL: DIQMTQSPSSLSASVGDRVTITCRTSQSISRYLNWYQQKPGKAPKLLIYAASSLQSGVPSRFTGSGSGTDFTLTISSLQPEDFATYYCQQSYSIPPVTFGQGTRVD
B9: mAb2-2 (antibody, V domains shown)
VH: QVQLQESGPGLVKPSVTLSLTCTVSGDSISTYYWSWVRQPPGKGLEWIGYIYYSGNTNYNPSLKSRVTMSVDTSKNQFSLKLNSVTAADTAVYYCARTHHDYGDYRPSYYFDYWGQGTLVTVSS
VL: QSALTQPASVSGSPGQSITISCTGTSSDVGAYDYVSWYQQHPGKAPKLMIYDVSNRPSSGVSNRFSGSKSGNTASLTISGLQAEDEADYYCSSYTSSSTVILGGGTKLTVL
B10: mAb3-2 (antibody, V domains shown)
VH: EVQLLESGGGLVQPGGSLRLSCAASGFTFSNYAMSWVRQAPGKGLEWVSLISGSGGSIDYADSVKGRFTISRDNSKNTLYLQMDSLRAEDTAVYYCSKDPIYYDLSGYYAGRIYYFDYWGQGTLVTVSS
VL: EIVMTQSPATLSVSPGDTATLSCRASHSVSRDLAWYQQKPGQAPRLLIYDASTRATGIPARFSGSGSGTEFTLTISSLQSEDFAVYYCQQYINWVTFGPGTKVDIE
B11: mAb1-1 (antibody, V domains shown)
VH: EVQLVESGGGLVKPGGSLRLSCAASGVPFSDAWMNWVRQAPGKGLEWVGRIKSKKDGGTADYAAPVKGRFSISRDDSKKMLYLHMNSLKTEDTAVYYCTTEPSGYCSNGLCYTGNYWGQGTLVTVSS
VL: QPVLTQSSSASASLGSSVKLTCTLSSGHITYIIAWHQQQPGKAPRYLMKLEDSGSYNKGSGVPDRFSGSSSGADRYLTISNLQFEDEADYYCETWDSYTRVFGGGTKLT
B12: mAb1-3 (antibody, V domains shown)
VH: VQLVESGGGVVQPGRSLRLSCAASGFSFSSFVFHWVRQAPGKGLEWVAVISYDGSNKNYADSVKGRFTISRDNSKNTLFLQMNSLSADDTAVYYCARGAICSSTTCYLGDSYYFYGMDVWGQGTTVTVSS
VL: LTQPPSVSGAPGQRVTISCTGSRSNIGAGYDVHWYQQLPGTAPKLLIYGNSNRPSGVPDRFSGSKSGTSASLAITGLQTDDEADYYCQSYDSSLSGSVFGGGTKLTVL
B13: mAb2-3 (antibody, V domains shown)
VH: VQLVESGGGLVKPGGSLRLSCATSGFTFSDYYMSWIRQAPGKGLEWVSYISSSGSTIYYADSVKGRFTMSRDNAKNSLFLRMNSLRAEDTAVYYCARDQITVDREVIRAHYYYGMDVWGQGTTVTVS
VL: DIQMTQSPSSVSASVGDRVTITCRASQGINSYLAWYQQKPGKAPKLLIYAASSLESGVPSRFSGSGSGTDFTLTISSLQPEDFATYYCQQANSFPLTFGGGTKVDI
B14: mAb2-5 (antibody, V domains shown)
VH: EVQLVESGGGLVKPGGSPRLSCAASGFNFGSYSMNWVRQAPGKGLEWVSSISSSSSYIYYADSVKGRFTISRDNAKHSLYLQVNSLRAEDTAVYYCARDPTTYGYNSAWDKKGWYFDLWGRGTLLTVS
VL: VLTQPPSVSAAPGQMVTISCSGSSSNIGNDYISWYQQLPGTAPKLLIYDNNERPSGIPDRFSGSKSGTSATLGITGVQTGDEADYYCGTWDSSLSAWVFGEGTKLTVV
B15: mAb1-4 (antibody, V domains shown)
VH: QVQVVESGAEVKKPGASVKVSCKASGYAFTTYYMHWVRQAPGQGLEWMGLINPSGDSITYAQRFQGRVTMTKDTSTSTVYMELSSLRSEDTAIYYCARDPNVAFYYGSGNYYKDNAMDVWGQGTTVTVSS
VL: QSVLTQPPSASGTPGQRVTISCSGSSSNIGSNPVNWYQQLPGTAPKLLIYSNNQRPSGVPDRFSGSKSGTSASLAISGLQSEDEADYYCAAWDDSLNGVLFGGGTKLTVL
B16: mAb1-7 (antibody, V domains shown)
VH: QVQLQESGPGLVKPSETLSLTCTVSGDSIRSYYWSWIRQPPGKGLEWIGHIYYSGSTNYKPSLKSRATILVDTSKNQFSLKLRSVTAADTAVYYCAREMTGVAGRGWDHWGQGTLVTVSS
VL: ALTQPPSASGTPGQRVTISCSGSSSNIGSNTVNWYQQLPGTAPKLLIFINNQRPSGVPDRFSGSKSGTSASLAISGLQSEDEADYYCTTWDGSLNGYVFGTRTEVTVL
B17: mAb3-7 (antibody, V domains shown)
VH: QVQLQESGPGLVKPSETLSLTCTVSGGSISNYYWNWIRQPPGKGLEWIGYVHYSGSTNYNPSLKSRVSVSVDTSKNQFSLNLGSVTAADTAVYYCARQSRSYYNEVITDPKYNFDYWGQGTLVTVSS
VL: QSALTQPASVSGSPGQSITISCTGTSSDVGGYDYVSWYQQHPGKAPKLMIYDVSNRPSGVSNRFSGSKSGNTASLTISGLQAEDEADYYCSSYTSISTLVFGGGTKLTVL
B18: mAb3-4 (antibody, V domains shown)
VH: AVESGGGLVKPGGPLRLSCAASGFSLSDNYMTWIRQAPGKGLEWVSYISSSGSFINYADSVKGRFTISRDNAKNSLYLQMNSLRAEDTAVYYCARVLSSGGLTTSWRALWYFDVWGRGTLVTVS
VL: TVVTQEPSFSVSPGGTVTLTCGLTSGSVSTSYYPSWYQQTPGQTPRTLIYSTNIRSSGVPDRFSGSILGNKAALTITGAQADDECDYYCVLYMGSGIWVFGGGTKLTVL
B19: mAb2-1 (antibody, V domains shown)
VH: EVQLLESGGGLVQPGKSLRLSCAASGFSFSNYAMSWVRQAPGKGLEWVSGISGSGGSTNYAESVRGRFTISRDNSKNTLYLEMNSLRVEDTAVYYCAKGMSYYDRSGYFWAKYHYGMDVWGQGITVTVSS
VL: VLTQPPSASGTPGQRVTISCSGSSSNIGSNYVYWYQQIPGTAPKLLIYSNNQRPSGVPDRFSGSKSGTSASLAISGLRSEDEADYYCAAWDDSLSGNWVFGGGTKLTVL

The target in the assay is T1, AAV9 capsid (adeno-associated virus serotype 9, UniProt Q6JC40).
T1 construct: also called wtAAV9; AAV9 vector; copies: 60
The assay is described as follows: far-Western, overlay or dot blot; native dot immunoblot: native capsids adsorbed onto nitrocellulose; human mAbs at ~1 µg/ml in PBS with 6% milk, 0.1% Tween-20, 1 h; anti-human-HRP. As to conditions: both partners purified.
Regarding B1, the binding result is “binds”. The value for B2 was “binds”.

On to B3, for which the binding result is “binds”. Next, B4: “binds”; B5: “binds”.

On to B6, for which the binding result was “binds”.

Turning to B7, the binding result is given as “binds”. Next, B8: “binds”; B9: “binds”; B10: “binds”. In the case of B11, the binding result is reported as “binds”. Next, B12: “binds”; B13: “binds”; B14: “binds”.

In the case of B15, the binding result is given as “binds”.

Turning to B16, the binding result is listed as “binds”. The value for B17 was “binds”; that for B18 was “binds”.

On to B19, for which the binding result was “binds”.

Values taken from publication PMC12009303, “Structural characterization of antibody-responses following Zolgensma treatment for AAV capsid engineering to expand patient cohorts” (Nature Communications, 2025).
